What was measured:
[1] = target: Gag.FP: unprocessed HIV-1 Gag polyprotein carrying eCFP or eYFP between MA and CA, in immature HIV^eCFP/eYFP particles (HIV-1 NL4-3); experiment: FRET or BRET; stopped-flow; dual-labeled particles mixed with 0.05% TX-100 in PBS at 25°C, excitation 436 nm, long pass filter 515 nm; five to six traces averaged; single or double exponential fits of the FRET decay
[2] = target: MA-CA.FP: uncleaved MA-CA Gag derivative carrying eCFP or eYFP, in HIV^eCFP/eYFP particles of the MA-CA cleavage site variant (HIV-1 NL4-3); experiment: as above
[3] = target: MA-SP1.FP: uncleaved MA-CA-SP1 Gag derivative carrying eCFP or eYFP, in HIV^eCFP/eYFP particles of the MA-SP1 cleavage site variant (HIV-1 NL4-3); experiment: as above
[4] = target: MA-SP1.FP: uncleaved MA-CA-SP1 Gag derivative carrying eCFP or eYFP, in HIV^eCFP/eYFP particles of the MA-SP1 cleavage site variant (HIV-1 NL4-3); experiment: FRET or BRET; cuvette-based; dual-labeled particles in PBS at 25°C, 0.05% TX-100 added at t = 0 to strip the lipid envelope; emission at 528 nm (excitation 433 nm) followed at 1 s resolution, or spectra after 15 min; normalized to the signal before detergent
[5] = target: MA.FP: HIV-1 matrix protein (MA) carrying eCFP or eYFP, in mature HIV^eCFP/eYFP particles (HIV-1 NL4-3); experiment: FRET or BRET; stopped-flow; dual-labeled particles mixed with 0.05% TX-100 in PBS at 25°C, excitation 436 nm, long pass filter 515 nm; five to six traces averaged; single or double exponential fits of the FRET decay

Q: Which k1, rate constant of FRET decay (single exponential) [1] does the source give for “Gag.FP: unprocessed HIV-1 Gag polyprotein carrying eCFP or eYFP between MA and CA, in immature HIV^eCFP/eYFP particles (natural protein)” here?
A: 0.018 s⁻¹

Q: How did the k1, rate constant of FRET decay (fast phase, double exponential) [2] turn out when “MA-CA.FP: uncleaved MA-CA Gag derivative carrying eCFP or eYFP, in HIV^eCFP/eYFP particles of the MA-CA cleavage site variant (domain or fragment)” was run?
A: 0.127 s⁻¹

Q: And the k2, rate constant of FRET decay (slow phase, double exponential) [2]?
A: 0.0082 s⁻¹

Q: Which k1, rate constant of FRET decay (fast phase, double exponential) [3] does the source give for “MA-SP1.FP: uncleaved MA-CA-SP1 Gag derivative carrying eCFP or eYFP, in HIV^eCFP/eYFP particles of the MA-SP1 cleavage site variant (domain or fragment)” here?
A: 0.129 s⁻¹

Q: And the k2, rate constant of FRET decay (slow phase, double exponential) [3]?
A: 0.0078 s⁻¹

Q: And the plateau of the FRET signal after detergent, % of the initial value [4]?
A: 75%

Q: “MA.FP: HIV-1 matrix protein (MA) carrying eCFP or eYFP, in mature HIV^eCFP/eYFP particles (natural protein)” was tested. Which k1, rate constant of FRET decay (single exponential) [5] did it give?
A: 0.099 s⁻¹
